From patent US20240400697A1 (NATIONAL RESEARCH COUNCIL OF CANADA, published 2024)
Numbering of substitutions follows the chain as printed. In names and notes the source's numbering stands.

B1: chimeric 4E11 antibody cH-cL (antibody, human IgG4 S228P, kappa, V domains shown)
VH: DVQLQESGPGLVKPSQSLSLTCTVTGYSITSDYAWNWIRQFPGNKLEWMGYIGYNGRTSYNPSLKSRISITRDTSKNQFFLQLNYVTTEDTATFYCARLGRGFAYWGQGTLVTVSA
VL: DILMTQSPSSMSVSLGDTVSITCHASQGINSNIGWLLQKPGKSFKGLIYHGTNLEDGVPSRFSGSGSGTDYSLTISSLESEDFADYYCVQYAQFPYTFGGGTKLEIKR
notes: Murine 4E11 V regions on human IgG4(S228P) heavy chain, C-terminal Lys deleted, and human kappa light chain; made in CHO cells; also called chimeric variant
B2: humanized 4E11 antibody hH2-hL2 (antibody, human IgG4 S228P, kappa, V domains shown)
VH: QVQLQESGPGLVKPSQTLSLTCTVSGYSITSDYAWNWIRQPPGKGLEWIGYIGYNGRTSYNPSLKSRVTISRDTSKNQFSLKLSSVTAADTAVYYCARLGRGFAYWGQGTLVTVSS
VL: DIQMTQSPSSLSASVGDRVTITCHASQGINSNIGWLQQKPGKAPKGLIYHGTNLEDGVPSRFSGSGSGTDYTLTISSLQPEDFATYYCVQYAQFPYTFGQGTKLEIKR
B3: humanized 4E11 antibody hH1-hL1 (antibody, human IgG4 S228P, kappa, V domains shown)
VH: B2 VH with R72V
VL: B2 VL with L36Y, G46L
B4: humanized 4E11 antibody hH3-hL2 (antibody, human IgG4 S228P, kappa, V domains shown)
VH: B2 VH with I49M, V68I
VL: B2 VL
notes: Human IgG4(S228P), C-terminal Lys deleted, human kappa; made in CHO cells; 16) for this name; 17
B5: humanized 4E11 antibody hH1-hL2 (antibody, human IgG4 S228P, kappa, V domains shown)
VH: B2 VH with R72V
VL: B2 VL
B6: humanized 4E11 antibody hH1-hL3 (antibody, human IgG4 S228P, kappa, V domains shown)
VH: B2 VH with R72V
VL: B2 VL with P44F
B7: humanized 4E11 antibody hH2-hL1 (antibody, human IgG4 S228P, kappa, V domains shown)
VH: B2 VH
VL: B2 VL with L36Y, G46L
notes: Human IgG4(S228P), C-terminal Lys deleted, human kappa; made in CHO cells; 16) for this name; 16
B8: humanized 4E11 antibody hH3-hL3 (antibody, human IgG4 S228P, kappa, V domains shown)
VH: B2 VH with I49M, V68I
VL: B2 VL with P44F
notes: Human IgG4(S228P), C-terminal Lys deleted, human kappa; made in CHO cells; 17) for this name; 18
B9: humanized 4E11 antibody hH3-hL1 (antibody, human IgG4 S228P, kappa, V domains shown)
VH: B2 VH with I49M, V68I
VL: B2 VL with L36Y, G46L
notes: Human IgG4(S228P), C-terminal Lys deleted, human kappa; made in CHO cells; 18) for this name; 16
B10: humanized 4E11 antibody hH2-hL3 (antibody, human IgG4 S228P, kappa, V domains shown)
VH: B2 VH
VL: B2 VL with P44F
notes: as for B8

Columns and labels:
[1] = biological target: T1, wild-type epidermal growth factor receptor (EGFR wt) (human, UniProt P00533 25-1210); test: flow cytometry on U87MG-EGFR wt cells
T1 construct: whole, on cells; also called wt EGFR; WT EGFR
Experimental: Cells overexpressing full length wt EGFR or EGFRvIII were obtained from the laboratory of W. Cavanee (Ludwig Institute for Cancer Research, University of California at San Diego). Cells were grown in DMEM high glucose medium containing 10% FBS and 400 μg/ml G418.
Prior to analysis, cells were plated such that they were not more than 80% confluent on the day of analysis. Unless otherwise stated, all media are kept are 4° C. and all incubations are performed on wet ice. Cells were washed in PBS, harvested by the addition of cell dissociation buffer (Sigma), centrifuged and resuspended in complete medium at a cell density of 2×10⁶ cells/mL. […] Cells were washed twice by centrifugation and further incubated with a FITC labeled F(ab′)₂ goat anti-mouse antibody (Fc specific, #115-096-071, Jackson Immunoresearch, Cedarlane) for an hour. Cells were washed and re-suspended in medium containing Propidium iodide to exclude dead cells from analysis. Samples were filtered through a 60 μm nylon mesh filter plate (Millipore) to remove cell aggregates. Flow cytometry analyses were performed on 2,000 viable single-cells events gated on forward scattering, side scattering parameters and propidium iodide dye exclusion using a BD-LSRFortessa flow cytometer (Becton-Dickinson Biosciences) and a standard filter set using BD FACSDiva™ acquisition software, according to manufacturer's instructions.

[2] = biological target: epidermal growth factor receptor variant III (EGFRvIII) (human) (UniProt P00533); test: flow cytometry on U87MG-EGFRvIII cells, apparent KD (KD-app), mean of several experiments

Binder	Bmax @ 300 nM (MFI) [1] [MFI]	Kd [2] [nM]
B1	525	
B2		10.5
B3		9.7
B4	160	7.9
B5		23
B6		15.7
B7	319	5.8
B8	1370	7.1
B9	164	4.9
B10	1420	7.2
